# Laboratory results: publication PMC11524583, “Neurons enhance blood–brain barrier function via upregulating claudin-5 and VE-cadherin expression due to glial cell line-derived neurotrophic factor secretion” (eLife, 2024)
# “And” between values parts separate entries of the source, which are not always exact repeats. Equal values may be shown once.
# Assays:
# FOXO1 = assay: Western blot of FOXO1 (p-FOXO1/FOXO1, total, cytoplasmic, nuclear) in hCMEC/D3 cells; format: cell-based, Homo sapiens; conditions: for FOXO1/Lamin B Relative Expression, Mean / FOXO1/Lamin B Relative Expression: Nucleus Protein
# Experimental: Whole-cell and tissue lysates, nucleoprotein, and cytoplasmic protein were prepared using RIPA Lysis Buffer (Beyotime, Shanghai, China) as the described method ([Wu et al., 2021]). Proteins were separated through sodium dodecyl sulfate–polyacrylamide gel electrophoresis and transferred onto nitrocellulose or polyvinylidene difluoride membranes. The membranes were blocked with 5% skim milk and incubated with corresponding primary antibodies at 4°C overnight. After being washed with Tris-buffered saline Tween buffer, the membranes were incubated with secondary antibodies (Cell Signaling Technology, MA, USA) at 1:3000 dilution: Anti-mouse IgG, HRP-linked Antibody (#7076), Anti-rabbit IgG, HRP-linked Antibody (#7074). Protein levels were visualized using a highly sensitive ECL western blotting substrate and a gel imaging system (Tanon Science & Technology, Shanghai, China).
# Here, hCMEC/D3 cells were plated in the plates or culture dishes at 6 × 10^4 cells/cm^2 and transfected with 10 nM of negative control or human FOXO1, ETS1, and CDH5 siRNA (Tsingke Biotechnology, Beijing, China) for 12 hr using Lipofectamine 3000 (Invitrogen, Carlsbad, CA, USA) reagent according to the manufacturer’s instructions. Cells were then incubated with a medium containing GDNF for 72 hr.
# The plasmids encoding FOXO1 (EX-Z7404-M02) were constructed by GeneCopoeia (Rockville, MD, USA). The hCMEC/D3 cells were plated in plates or dishes at 6 × 10^4 cells/cm^2. They were subsequently transfected with 1 µg of negative control or plasmids encoding FOXO1 6 hr using Lipofectamine 3000 reagent according to the manufacturer’s instructions. Transfected cells were then incubated with the medium containing GDNF for 72 hr.
# VE-cadherin = assay: Western blot of VE-cadherin expression in hCMEC/D3 cells; format: cell-based, Homo sapiens
# Summary of the method: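 hCMEC/D3 cells were cultured 6 days in 200 pg/ml GDNF or U251/SH-SY5Y co-culture conditioned medium, ±0.25–1.0 μg/ml anti-GDNF antibody, with medium changed every 24 hr. Alternatively, cells got 10 nM FOXO1, ETS1 or CDH5 siRNA for 12 hr, then GDNF medium for 72 hr. RIPA lysates were immunoblotted with ECL detection.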
# [1] = Cytoplasm protein, Figure 4F, group mean, Con = 1.000
# [2] = Cytoplasm protein, Figure 4F, individual replicates, relative to Con
# [3] = Figure 4B, Cytoplasm Protein, group mean, Con = 1.000
# [4] = Figure 4B, Cytoplasm Protein, individual replicates, relative to Con
molecule,measurement,setting,value
"GDNF: glial cell line-derived neurotrophic factor, recombinant protein (R&D system) (protein, UniProt P39905 78-211, looked up) Glial cell line-derived …: SPDKQMAVLPRRERNRQAAAANPENSRGKGRRGQRGKNRGCVLTAIHLNVTDLGLGYETKEELIFRYCSGSCDAAETTYDKILKNLSRNRRLVSDKVGQACCRPIAFDDDLSFLDDNLVYHILRKHSAKRCGCI","FOXO1/GAPDH Relative Expression, Mean",FOXO1; [1],1.482
same,"p-FOXO1/GAPDH Relative Expression, Mean",FOXO1; [1],1.560
same,FOXO1/GAPDH Relative Expression,FOXO1; [2],1.349 and 1.335 and 1.673 and 1.570
same,p-FOXO1/GAPDH Relative Expression,FOXO1; [2],1.317 and 1.387 and 1.877 and 1.660
same,"p-FOXO1/FOXO1 Relative Expression, Mean","FOXO1; Figure 4A, group mean, Con = 1.000",2.044
same,p-FOXO1/FOXO1 Relative Expression,"FOXO1; Figure 4A, individual replicates, relative to Con",2.153 and 1.987 and 1.525 and 2.510
same,"FOXO1/β-actin Relative Expression, Mean","FOXO1; Figure 4A, total FOXO1, group mean, Con = 1.000",0.802
same,FOXO1/β-actin Relative Expression,"FOXO1; Figure 4A, total FOXO1, individual replicates, relative to Con",0.773 and 0.798 and 1.007 and 0.631
same,"FOXO1/GAPDH Relative Expression, Mean",FOXO1; [3],1.680
same,"p-FOXO1/GAPDH Relative Expression, Mean",FOXO1; [3],1.601
same,FOXO1/GAPDH Relative Expression,FOXO1; [4],1.609 and 1.840 and 1.778 and 1.494
same,p-FOXO1/GAPDH Relative Expression,FOXO1; [4],1.850 and 1.523 and 1.386 and 1.647
same,"FOXO1/Lamin B Relative Expression, Mean","FOXO1; Figure 4B, group mean, Con = 1.000",0.556
same,FOXO1/Lamin B Relative Expression,"FOXO1; Figure 4B, individual replicates, relative to Con",0.674 and 0.519 and 0.531 and 0.499
same,"FOXO1/Lamin B Relative Expression, Mean","FOXO1; Figure 4F, group mean, Con = 1.000",0.751
same,FOXO1/Lamin B Relative Expression,"FOXO1; Figure 4F, individual replicates, relative to Con",0.817 and 0.783 and 0.758 and 0.647
same,"p-FOXO1/FOXO1 Relative Expression, Mean","FOXO1; Whole cell lysate, Figure 4F, group mean, Con = 1.000",1.362
same,p-FOXO1/FOXO1 Relative Expression,"FOXO1; Whole cell lysate, Figure 4F, individual replicates, relative to Con",1.502 and 1.205 and 1.426 and 1.314
same,FOXO1 phosphorylation (p-FOXO1),"FOXO1; hCMEC/D3 cells, GDNF or US-CM",significantly enhanced
same,levels of nuclear FOXO1,"FOXO1; hCMEC/D3 cells, GDNF or US-CM",decreased
same,levels of phosphorylated and unphosphorylated FOXO1 in the cytoplasm,"FOXO1; hCMEC/D3 cells, GDNF or US-CM",increased
same,"VE-cadherin/β-actin Relative Expression, Mean","VE-cadherin; 50pg, Figure 2D, Con = 1.000",1.451
same,VE-cadherin/β-actin Relative Expression,"VE-cadherin; 50pg, Figure 2D, relative to Con, single replicates",1.462 and 1.352 and 1.497 and 1.494
same,"VE-cadherin/β-actin Relative Expression, Mean","VE-cadherin; 100pg, Figure 2D, Con = 1.000",1.603
same,VE-cadherin/β-actin Relative Expression,"VE-cadherin; 100pg, Figure 2D, relative to Con, single replicates",1.56 and 1.556 and 1.562 and 1.733
same,"VE-cadherin/β-actin Relative Expression, Mean","VE-cadherin; 200pg, Figure 2D, Con = 1.000",1.795
same,VE-cadherin/β-actin Relative Expression,"VE-cadherin; 200pg, Figure 2D, relative to Con, single replicates",1.847 and 2.268 and 1.408 and 1.657
same,VE-cadherin/β-actin Mean,"VE-cadherin; Figure 2K, hCMEC/D3 cells, group mean, relative to Con",1.787
same,VE-cadherin/β-actin Relative Expression,"VE-cadherin; Figure 2K, hCMEC/D3 cells, individual replicates, relative to Con",2.089 and 1.381 and 1.914 and 1.765
same,"VE-cadherin/β-actin Relative Expression, Mean","VE-cadherin; Figure 5G, hCMEC/D3 cells, group mean, NC = 1.000",1.370
same,VE-cadherin/β-actin Relative Expression,"VE-cadherin; Figure 5G, hCMEC/D3 cells, single replicates, relative to NC group",1.534 and 1.457 and 1.274 and 1.216
same,VE-cadherin expression,VE-cadherin; hCMEC/D3 cells incubated with conditioned medium or neurotrophic factor vs normal medium,induced the expression of claudin-5 and VE-cadherin in a concentration-dependent manner
same,"VE-cadherin/β-actin Relative Expression, Mean","VE-cadherin; relative to Con (mean 1.000), mean of 4, Figure 3A",1.424
same,VE-cadherin/Tubulin Relative Expression Mean,"VE-cadherin; relative to Con (mean 1.000), mean of 4, Figure 3B",1.899
same,"VE-cadherin/β-actin Relative Expression, Mean","VE-cadherin; relative to Con (mean 1.000), mean of 4, Figure 3C",1.775
same,VE-cadherin/Tubulin Relative Expression Mean,"VE-cadherin; relative to Con (mean 1.000), mean of 4, Figure 3D",1.478
same,VE-cadherin/β-actin Relative Expression,"VE-cadherin; relative to Con (mean 1.000), single replicates, Figure 3A",1.437 and 1.554 and 1.424 and 1.283
same,VE-cadherin/Tubulin Relative Expression,"VE-cadherin; relative to Con (mean 1.000), single replicates, Figure 3B",1.415 and 1.823 and 2.246 and 2.110
same,VE-cadherin/β-actin Relative Expression,"VE-cadherin; relative to Con (mean 1.000), single replicates, Figure 3C",1.887 and 1.656 and 1.568 and 1.989
same,VE-cadherin/Tubulin Relative Expression,"VE-cadherin; relative to Con (mean 1.000), single replicates, Figure 3D",1.343 and 1.350 and 1.787 and 1.430
